For 79 sequences, switch fluorescence ratio results are on record in the supplement of paper PMC10126150.

± gives the standard deviation of the averaged measurements.
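Note: ATP exposure 15 min at 22 °C before imaging.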

The data set relates to ATP. In words: switch fluorescence ratio, 500 uM ATP over buffer (Cy3 cluster intensity, sum of 5 cycles each) (fold (ratio)); higher = stronger signal-on switching upon ATP binding; sequences stand for … in TCGTCGGCAGCGTCAGATGTGTATAAGAGACAGTTTTTTTTTTTTTTTTTTTTTTTTT…TC. The settings on record: aptamer strand: ATP DNA aptamer (quencher-CACCTGGGGGAGTATTGCGGAGGAAGG + anchor), 100 nM annealed; ATP concentration: 500 uM. In outline:
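Values give the fluorescence ratio for each switch-domain sequence, averaged from per-cluster ratios of summed target-cycle to summed buffer-cycle Cy3 intensity. The Cy3-labelled switching-strand clusters sat on a modified Illumina MiSeq flow-cell, were annealed to 100 nM quencher-labelled ATP aptamer, and were imaged in selection buffer, then after 15 min with 500 uM ATP at 22 °C. Five cycles ran with NaOH stripping and re-annealing between them, and clusters outside 100-1000 RFU were excluded.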
Take GAAACTTGTG: the switch fluorescence ratio is 0.963 ± 0.025.

Regarding TTGTTACGGA, the switch fluorescence ratio worked out at 1.01 ± 0.017.

Turning to GGTGTATAAA, the switch fluorescence ratio came to 0.967 ± 0.054.

Turning to TGTTGCTCCA, the switch fluorescence ratio was found to be 1.05 ± 0.082.

With TGGATTCATG, the switch fluorescence ratio turned out to be 0.978 ± 0.06.

GGGGATAAAA: the switch fluorescence ratio worked out at 1.01 ± 0.034.

On to TTCGGGTGGA, for which the switch fluorescence ratio came to 1.02 ± 0.046.

For AACTTTTTCG, the switch fluorescence ratio stood at 1.012 ± 0.0034.

As for TTAACTACCG, the switch fluorescence ratio is 1.042 ± 0.0084.

In the case of TTAGAGGACT, the switch fluorescence ratio was 1.01 ± 0.025.

In the case of TGGGGGTGTG, the switch fluorescence ratio came out at 1.04 ± 0.082.

As for CTTCTAGTCC, the switch fluorescence ratio was determined as 1.03 ± 0.028.

For GGTTTTCTCA, the switch fluorescence ratio amounted to 1.002 ± 0.008.

On to TGTTGTAAGT, for which the switch fluorescence ratio worked out at 0.984 ± 0.026.

With GGTGTTTTCG, the switch fluorescence ratio was determined as 0.998 ± 0.03.

On to ACGGCCTGTT, for which the switch fluorescence ratio is 1.02 ± 0.017.

Consider GTTTAGAGTG, for which the switch fluorescence ratio amounted to 0.944 ± 0.033.

On to TCTTAAAGCA, for which the switch fluorescence ratio was determined as 1.02 ± 0.06.

Regarding TATAAAGGGG, the switch fluorescence ratio came out at 1 ± 0.025.

As to ATATTGTCGT, the switch fluorescence ratio amounted to 1.011 ± 0.0053.

For CAGGTTGAAC, the switch fluorescence ratio was 0.9866 ± 0.0021.

For GGGATTATGT, the switch fluorescence ratio amounted to 0.97 ± 0.015.

For the sequence AACGGCAGTG, the switch fluorescence ratio is 1.03 ± 0.022.

As for CTTCGGTTCT, the switch fluorescence ratio is 1.02 ± 0.028.

Turning to TCAACGGGGG, the switch fluorescence ratio came to 1.08 ± 0.17.

As for AACTTTTTTA, the switch fluorescence ratio stood at 0.964 ± 0.017.

In the case of GATATTGTCA, the switch fluorescence ratio came to 1.04 ± 0.069.

As to GAAATTGGTT, the switch fluorescence ratio came out at 0.988 ± 0.067.

Regarding GAGGGGATTG, the switch fluorescence ratio amounted to 0.986 ± 0.047.

For the sequence TGGGTTTGCT, the switch fluorescence ratio was found to be 1.001 ± 0.0063.

As for GCATGGGGAC, the switch fluorescence ratio came out at 1.05 ± 0.081.

Regarding GTTCAGGGCT, the switch fluorescence ratio turned out to be 1.01 ± 0.02.

Take AGCGTAGTCA: the switch fluorescence ratio is 0.9868 ± 0.0021.

As to GTAGGACCTA, the switch fluorescence ratio was determined as 1.01 ± 0.018.

On to TTTTTCGCCT, for which the switch fluorescence ratio stood at 1.01 ± 0.029.

Take GTTGCCTTGC: the switch fluorescence ratio was determined as 1.06 ± 0.011.

Turning to GATTGGCCCG, the switch fluorescence ratio was 1.11 ± 0.13.

On to TGGTACGGGT, for which the switch fluorescence ratio amounted to 1.03 ± 0.011.

On to TTGTGGAAAA, for which the switch fluorescence ratio stood at 0.953 ± 0.03.

Take TCAAATACG: the switch fluorescence ratio amounted to 1.057 ± 0.009.

On to TTTGGTTGTA, for which the switch fluorescence ratio turned out to be 0.965 ± 0.014.

In the case of ATAATGACGT, the switch fluorescence ratio was 1.01 ± 0.049.

As to GGGATATAAT, the switch fluorescence ratio stood at 1.02 ± 0.022.

Regarding GATAGCCGAT, the switch fluorescence ratio came out at 1.031 ± 0.0015.

Take GGGTGTAGCC: the switch fluorescence ratio turned out to be 1.04 ± 0.037.

On to GTAAATAGGC, for which the switch fluorescence ratio was 0.993 ± 0.023.

On to CAAGGGGGGG, for which the switch fluorescence ratio is 0.99 ± 0.034.

CAAAAGATTC: the switch fluorescence ratio amounted to 1.045 ± 0.0095.

In the case of GTGAGGGATT, the switch fluorescence ratio came out at 1 ± 0.022.

CGTTGATGTG: the switch fluorescence ratio was 0.99 ± 0.045.

Consider TCATGTTTTT, for which the switch fluorescence ratio was 1.05 ± 0.14.

As for GGTAGGGGTG, the switch fluorescence ratio was determined as 1.07 ± 0.033.

AGGGGGTACG: the switch fluorescence ratio came out at 1.01 ± 0.035.

For GGGCGTAAAA, the switch fluorescence ratio was 1.07 ± 0.023.

TTTTGATCAA: the switch fluorescence ratio turned out to be 1.01 ± 0.02.

Consider CTGTGAGGGC, for which the switch fluorescence ratio was determined as 0.991 ± 0.037.

Take ATAGGGAGGG: the switch fluorescence ratio turned out to be 1.012 ± 0.0048.

Regarding CAAAGTAATT, the switch fluorescence ratio was 0.983 ± 0.033.

Regarding TAAAGATGAG, the switch fluorescence ratio came out at 1.0091 ± 0.00022.

Consider ATGTGAGCGG, for which the switch fluorescence ratio was 1.01 ± 0.038.

Consider TAAGTATTCG, for which the switch fluorescence ratio came to 0.9972 ± 0.0086.

Regarding GGGTCAGTTT, the switch fluorescence ratio came to 1.04 ± 0.054.

Take GCTTGGCAAC: the switch fluorescence ratio amounted to 1.02 ± 0.012.

Regarding GCGAAAGGGA, the switch fluorescence ratio is 1.02 ± 0.036.

For the sequence GGGCATTTAG, the switch fluorescence ratio came to 1.03 ± 0.092.

In the case of AAACTAAGTT, the switch fluorescence ratio stood at 1.041 ± 0.008.

For the sequence AAAGGGAAGG, the switch fluorescence ratio came out at 1.01 ± 0.018.

Regarding GGTGTTAATT, the switch fluorescence ratio was 0.9888 ± 0.0093.

Turning to ATTTACTGCG, the switch fluorescence ratio worked out at 1.01 ± 0.041.

For the sequence GGGCAAAAAA, the switch fluorescence ratio amounted to 1.03 ± 0.073.

Take ACCATGTATC: the switch fluorescence ratio was 0.998 ± 0.026.

On to ATCAGCTGTG, for which the switch fluorescence ratio came to 1.02 ± 0.024.

For the sequence TATATTGAAC, the switch fluorescence ratio amounted to 1.022 ± 0.0028.

In the case of GCGAAGGTCA, the switch fluorescence ratio was 1.01 ± 0.012.

As to AATCGCTCTT, the switch fluorescence ratio amounted to 1.007 ± 0.0062.

As to ATTTTAGGTT, the switch fluorescence ratio is 0.984 ± 0.03.

For the sequence CTATTTTACT, the switch fluorescence ratio was 0.9873 ± 0.0073.

As for TTTTGTTTAC, the switch fluorescence ratio was determined as 1.01 ± 0.028.

For ACCGGCGTAG, the switch fluorescence ratio was 1 ± 0.016.
